Assays:
hCYP3A4 promoter = experiment: NHR-promoter luciferase screen, hCYP3A4 promoter; type: cell-based, human; conditions: for Luc. act., normalized to lacZ / Normalized Luc. act., normalized to control: CYP3A4 promoter, HR/ligand component; for hCYP3A4 promoter reporter activity: transcription factor +/- ligand, control = 1.00
Outline: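 Luciferase reporter read-out after co-expression in CV-1 cells of V5H6-tagged receptor (alone or with RXR), the promoter construct and LacZ. Values are luciferase/LacZ relative to a control lacking NHR or ligand; orphan receptors tested ligand-free.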

MCP-1 promoter = experiment: NHR-promoter luciferase screen, MCP-1 promoter; type: cell-based; conditions: for Normalized Luc. act., normalized to control: MCP-1 promoter reporter, HR without or with its ligand, relative to control; for mMCP-1 promoter reporter activity: transcription factor +/- ligand, control = 1.00
Outline: (§1)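 CV-1 cells were co-transfected with 50 ng NHR (homodimer or NHR/RXR heterodimer), 100 ng promoter-luciferase construct and 50 ng LacZ. Luciferase was normalized to LacZ and to a no-NHR/no-ligand control.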

hMyoD promoter = experiment: NHR-promoter luciferase screen, hMyoD promoter; type: cell-based, human; conditions: for Luc. act., normalized to lacZ / Normalized Luc. act., normalized to control: MyoD promoter reporter, co-transfected HR, without or with its ligand; for Normalized Luc. act., normalized to control: relative to control; for luciferase activity normalized to lacZ activity and to a control, hMyoD: hMyoD promoter-luciferase, CV-1 cells, NHR +/- ligand, control = 1.00
Outline: as §1

mUCP2 promoter = experiment: NHR-promoter luciferase screen, mUCP2 promoter; type: cell-based, mouse; conditions: for Luc. act., normalized to lacZ / Normalized Luc. act., normalized to control: mUCP2 promoter reporter, co-transfected HR, with or without its ligand; for Normalized Luc. act., normalized to control: relative to control; for luciferase activity normalized to lacZ activity and to a control, mUCP2: mUCP2 promoter-luciferase, CV-1 cells, NHR +/- ligand, control = 1.00
Outline: as §1

mPer1 promoter = experiment: NHR-promoter luciferase screen, mPer1 promoter; type: cell-based, mouse; conditions: for Luc. act., normalized to lacZ / Normalized Luc. act., normalized to control: Per1 promoter reporter, co-transfected HR, with or without its ligand; for Normalized Luc. act., normalized to control: relative to control; for luciferase activity normalized to lacZ activity and to a control, mPer1: mPer1 promoter-luciferase, CV-1 cells, NHR +/- ligand, control = 1.00
Outline: as §1

hPPARg1 promoter = experiment: NHR-promoter luciferase screen, hPPARg1 promoter; type: cell-based, human; conditions: for Luc. act., normalized to lacZ / Normalized Luc. act., normalized to control: PPARG1 promoter, hormone receptor with or without its ligand; for Normalized Luc. act., normalized to control: relative to control; for Results of assays of transcription factor (+/- ligand) with hPPARg1: Table 6d, luciferase activity relative to control (control = 1.00)
Outline: as §1

B1: CTF1: COUP-TF1 (NR2F1), cDNA driver (protein, UniProt P10589 1-423, looked up)
COUP transcription factor 1: MAMVVSSWRDPQDDVAGGNPGGPNPAAQAARGGGGGAGEQQQQAGSGAPHTPQTPGQPGAPATPGTAGDKGQGPPGSGQSQQHIECVVCGDKSSGKHYGQFTCEGCKSFFKRSVRRNLTYTCRANRNCPIDQHHRNQCQYCRLKKCLKVGMRREAVQRGRMPPTQPNPGQYALTNGDPLNGHCYLSGYISLLLRAEPYPTSRYGSQCMQPNNIMGIENICELAARLLFSAVEWARNIPFFPDLQITDQVSLLRLTWSELFVLNAAQCSMPLHVAPLLAAAGLHASPMSADRVVAFMDHIRIFQEQVEKLKALHVDSAEYSCLKAIVLFTSDACGLSDAAHIESLQEKSQCALEEYVRSQYPNQPSRFGKLLLRLPSLRTVSSSVIEQLFFVRLVGKTPIETLIRDMLLSGSSFNWPYMSIQCS
hCYP3A4 promoter
  Luc. act., normalized to lacZ: 2.6
  Normalized Luc. act., normalized to control: 0.6
  hCYP3A4 promoter reporter activity: 0.59
MCP-1 promoter
  Normalized Luc. act., normalized to control: 0.0
  mMCP-1 promoter reporter activity: 0.00
hMyoD promoter
  Luc. act., normalized to lacZ: 44.8
  Normalized Luc. act., normalized to control: 0.7
  luciferase activity normalized to lacZ activity and to a control, hMyoD: 0.71
mUCP2 promoter
  Luc. act., normalized to lacZ: 67.1
  Normalized Luc. act., normalized to control: 0.6
  luciferase activity normalized to lacZ activity and to a control, mUCP2: 0.61
mPer1 promoter
  Luc. act., normalized to lacZ: 283.8
  Normalized Luc. act., normalized to control: 2.0
  luciferase activity normalized to lacZ activity and to a control, mPer1: 1.97
hPPARg1 promoter
  Luc. act., normalized to lacZ: 39.7
  Normalized Luc. act., normalized to control: 0.6
  Results of assays of transcription factor (+/- ligand) with hPPARg1: 0.58

B2: CTF2: COUP-TF2 (NR2F2), cDNA driver (protein, UniProt P24468 1-414, looked up)
COUP transcription factor 2: MAMVVSTWRDPQDEVPGSQGSQASQAPPVPGPPPGAPHTPQTPGQGGPASTPAQTAAGGQGGPGGPGSDKQQQQQHIECVVCGDKSSGKHYGQFTCEGCKSFFKRSVRRNLSYTCRANRNCPIDQHHRNQCQYCRLKKCLKVGMRREAVQRGRMPPTQPTHGQFALTNGDPLNCHSYLSGYISLLLRAEPYPTSRFGSQCMQPNNIMGIENICELAARMLFSAVEWARNIPFFPDLQITDQVALLRLTWSELFVLNAAQCSMPLHVAPLLAAAGLHASPMSADRVVAFMDHIRIFQEQVEKLKALHVDSAEYSCLKAIVLFTSDACGLSDVAHVESLQEKSQCALEEYVRSQYPNQPTRFGKLLLRLPSLRTVSSSVIEQLFFVRLVGKTPIETLIRDMLLSGSSFNWPYMAIQ
hCYP3A4 promoter
  Luc. act., normalized to lacZ: 2.7
  Normalized Luc. act., normalized to control: 0.6
  hCYP3A4 promoter reporter activity: 0.61
MCP-1 promoter
  Normalized Luc. act., normalized to control: 0.0
  mMCP-1 promoter reporter activity: 0.00
hMyoD promoter
  Luc. act., normalized to lacZ: 60.9
  Normalized Luc. act., normalized to control: 1.0
  luciferase activity normalized to lacZ activity and to a control, hMyoD: 0.96
mUCP2 promoter
  Luc. act., normalized to lacZ: 90.4
  Normalized Luc. act., normalized to control: 0.8
  luciferase activity normalized to lacZ activity and to a control, mUCP2: 0.82
mPer1 promoter
  Luc. act., normalized to lacZ: 346.6
  Normalized Luc. act., normalized to control: 2.4
  luciferase activity normalized to lacZ activity and to a control, mPer1: 2.41
hPPARg1 promoter
  Luc. act., normalized to lacZ: 43.9
  Normalized Luc. act., normalized to control: 0.6
  Results of assays of transcription factor (+/- ligand) with hPPARg1: 0.64

Source: patent publication US20110263454A1, “Methods of Identifying Functional Characteristics of Promoters, Transcription Modifying Proteins and Transcription Modulating Agents” (Salk Institute for Biological Studies, priority 2008, published 2011)
